The record followed here is US20260091082A1, “CYCLIC PEPTIDE DERIVATIVE COMPOSITION FOR TREATING OR PREVENTING EYE DISEASE” (DKS Co. Ltd., priority 2022, published 2026).

Where “and” joins values, the source holds several entries; their conditions need not be identical. Identical values can stand only once.

The subject of series [1] is laser-induced choroidal neovascularization rat model. The series is described as follows: Laser-induced choroidal neovascularization rat model: CNV area in choroidal flat mount (FITC-dextran). The class given is in vivo. The method, then:
The groups were set as in Table 8 below. Laser irradiation was performed on the right eye in 10 animals in each group. EYLEA (registered trademark) was administered intravitreally into the right eye of individuals in Group 2 immediately after laser irradiation. For the individuals of Groups 1, 3, and 4, eyedrop administration of the administration substances of each group was performed four times a day from the day of laser irradiation to the day before eyeball enucleation.
Animals to be laser-irradiated were subjected to pupil dilation with Mydorin (registered trademark) P ophthalmic solution, and subjected to general anesthesia by intramuscular injection of a mixed solution of ketamine hydrochloride/xylazine hydrochloride (4:1, v/v) (1 mL/kg) into the thigh muscle. Then, fundus of the right eye was then observed using a slit lamp (SL-130, Carl Zeiss Meditec AG), and laser irradiation was performed at six locations using a green laser photocoagulation device (GYC-500, Nidek Co., Ltd.), avoiding thick capillaries of the retina. The laser conditions were a wavelength of 532 nm (green), a spot size of 50 μm, an irradiation time of 0.1 sec, and a laser irradiation intensity of 300 mW. Except for the individuals to be administered EYLEA (registered trademark), sodium hyaluronate (Hyalein (registered trademark) ophthalmic solution 0.3%, Santen Pharmaceutical Co., Ltd.) as an eye drop for treatment of corneal and conjunctival epithelial disorders was instilled into both eyes after laser irradiation.
Levofloxacin hydrate (CRAVIT (registered trademark) 1.5% ophthalmic solution, Santen Pharmaceutical Co., Ltd.) as a broad-spectrum antibacterial eye drop and oxybuprocaine hydrochloride (Benoxil (registered trademark) 0.4% ophthalmic solution, Santen Pharmaceutical Co., Ltd.) as an ophthalmic topical anesthetic were once instilled into the right eye of rats in Group 2 (EYLEA (registered trademark) administration group) after end of laser irradiation, and then EYLEA (registered trademark) was intravitreally administered at a dose of 200 μg/5 μL/eye using a 33 G two-stage injection needle and a microsyringe (Ito Manufacturing Co., Ltd.). The microsyringe was washed with D-PBS before administration. Hyalein (registered trademark) ophthalmic solution 0.3% was instilled into both eyes after intravitreal administration.
Eyedrop administration of the test substance and the negative control administration solution was performed in a volume of 5 μL/eye using a micropipette (Eppendorf Research Plus V, Eppendorf) at the administration period and the number of times determined for each group (see Group constitution table of Item (2)). At that time, since a test substance solution adheres to an outer side of the tip, care was taken so that the adhering test substance solution was wiped off with a Kimwipe once each time of eyedrop administration, and an excessive amount of the test substance solution was not instilled. In addition, although the tip of the pipette tip was sharp, care was taken not to damage the eyeball surface. Immediately before administration, the administration solution was lightly (about several seconds) centrifuged using a small microcentrifuge Wonder Spin, and the supernatant was used for administration.
Fourteen days after laser irradiation (Day 14), under general anesthesia by intramuscular femoral administration (1 mL/kg) of a ketamine hydrochloride/xylazine hydrochloride (4:1, v/v) mixed solution, a 4% FITC-dextran solution was administered to the tail vein at a dose of 40 mg/l mL/animal.
After 1 minute from the tail vein administration of the 4% FITC-dextran solution, rats were euthanized by excessive anesthesia by administration of 129.6 mg/mL sodium pentobarbital solution and the right eye ball was enucleated. The enucleated eyeball was fixed in a 4% paraformaldehyde phosphate buffer (FUJIFILM Wako Pure Chemical Corporation, hereinafter referred to as 4% PFA) for 12 to 30 hours at normal temperature. […]

The nature of series [2]: Body weight measurement during the CNV rat test. The series is classed as in vivo. The conditions noted are these: for Body Weight (Average): Group 2, IVT inj. 200 μg/5 μL/eye single dose; for Weight (g) (Individual): Group 2 individual animals, IVT 200 μg/5 μL/eye. As for the experimental part: The appearance, behavior, and state of excrement or the like were observed every day.
The body weight was measured on the animal arrival date, the preliminary housing end date (grouping date), the eyedrop administration start date, the laser irradiation date (Day 0), and the eyeball enucleation date (Day 14).

As to Aflibercept [EYLEA], in series [1] (Group 2, IVT inj. 200 μg/5 μL/eye single dose after irradiation, 14 days after laser, N=10), the “Area of CNV Lesion, Mean” value turned out to be 421359.3 pixel. Also, the “CNV area compared with Group 1 (saline), in words” value in series [1] (Group 2, intravitreal 200 μg/5 μL/eye, Student's t-test) was “CNV area was significantly reduced”. For the same substance, in series [1] (Group 2 individual animals, IVT 200 μg/5 μL/eye, 14 days after laser), the “Individual Value of CNV Area in Each Animal” value is 396255.8 pixel and 417758.8 pixel and 460248.8 pixel and 470883.0 pixel and 474112.7 pixel and 444455.3 pixel and 440849.3 pixel and 374017.3 pixel and 402387.0 pixel and 332625.3 pixel. For the same substance, the “Body Weight (Average)” value was 155.10 g in series [2] (Day 0 (Laser injection)), 200.52 g in series [2] (Day 14 (Enucleation)) and 141.91 g in series [2] (Day −3 or Day −2 (Grouping)). The “Weight (g) (Individual)” value in series [2] (Enucleation (Day 14)) was 191.41 g and 189.23 g and 203.15 g and 192.58 g and 215.19 g and 210.30 g and 206.10 g and 205.20 g and 197.20 g and 194.87 g; in series [2] (Grouping (Day −3 or −2)) it was 132.69 g and 135.94 g and 139.54 g and 143.39 g and 145.96 g and 144.35 g and 147.21 g and 151.85 g and 140.51 g and 137.64 g; in series [2] (Laser injection (Day 0)), 140.59 g and 146.82 g and 151.42 g and 154.62 g and 160.15 g and 162.32 g and 160.99 g and 169.71 g and 155.47 g and 148.87 g.
